From patent US20040166544A1 (published 2004)
Residue numbers refer to the chain shown, from its start. “And” between values parts separate entries of the source, which are not always exact repeats. Identical values can stand only once.

B1: c-Met IgG antibody 12123 (antibody, V domains shown)
VH: QVQLQESGPGLVKPSATLSLTCAVSGGSISSNHWWSWVRQSPGKGLEWIGEIYTYGGANYNPSLKSRVDISMDKSKNQFSLHLSSVTAADTAVYYCGRHLTGYDCFDIWGQGTLVTVSS
VL: QAVLTQPSSVSGAPGQRVTISCTGSSSNIGAGYDVHWYQQLPGTAPKLLIYGNSNRPSGVPDRFSGSKSGTSASLAITGLQAEDEADYYCQSYDSSLSGVFGTGTQLTVLS
notes: IgG of scFv PGIA-3-B2; The VL reverse cloning primer RH62 codes ...TVLG whereas the scFv entry ends ...TVLS; also called 12123 IgG; IgG of scFv PGIA-03-B2 (PGIA-3-B2)
B2: c-Met IgG antibody 12133 (antibody, V domains shown)
VH: QVQLQESGPGLVKPSGTLSLTCAVSGGSISTSDWWSWVRRPPGKGLEWIGEIYHSGSTNYHPSLKSRVTISLDKSKNQFSLKLSSVTAADTAVYYCAREGGHSGSYPLDYWGRGTLVTVSS
VL: NFMLTQPHSVSESPGKTATISCTGSGGSIARSYVQWYQQRPGRAPSIVIYEDYQRPSGVPDRFSGSIDSSSNSASLTITGLKTDDEADYYCQSSDDNNNVVFGGGTKVTVLG
notes: IgG of scFv PGIA-4-A5; also called 12133 IgG; IgG of scFv PGIA-04-A5 (PGIA-4-A5)
B3: c-Met IgG antibody 11994 (antibody, V domains shown)
VH: B2 VH with R113K
VL: NFMLTQPHSVSESPGKTVTISCTRSSGSIASNYVQWYQQRPGSSPTTVIYEDNQRPSGVPDRFSGSIDSSSNSASLTISGLKTEDEADYYCQSYDSSNQGVVFGGGTKLTVLG
notes: IgG of scFv PGIA-3-A9; also called 11994 IgG; 11994-50
B4: c-Met 12119 Fab (Fab, V domains shown)
VH: B2 VH with V2L
VL: NFMLTQPHSVSESPGKTVTISCARSSGSIASNYVQWYQQRPGSSPTTLIYEDRQRPSGVPDRFSGSIDSSSNSASLTISGLKTEDEADYYCQSYDSSDHVVFGGGTKLTVLG
notes: VH and VL limits counted as for the IgG; also called Fab fragment derived from c-Met antibody 12119
B5: c-Met IgG antibody 12136 (antibody, V domains shown)
VH: QVQLQESGPGLVKPSETLSLTCNVSGGSIRNYFWSWIRQPPGQGLEYIGYIYYSGTTDYNPSLKGRVTISLDTSKTQFSLKLNSVTAADTAFYYCVRGPNKYAFDPWGQGTLVTVSS
VL: SYELTQPPSVSVSPGQTASITCSGDKLGDKFASWYQQKAGQSPVLVIYRDTKRPSGIPERFSGSNSGNTATLTISGTQAMDEADYYCQAWDSSTAVFGTGTKVTVLG
notes: IgG of scFv PGIA-4-A8; also called 12136 IgG; IgG of scFv PGIA-04-A8 (PGIA-4-A8)
B6: c-Met IgG antibody 11986 (antibody, V domains shown)
VH: EVQLVQSGAEVKKPGATLKVSCKVSAYTFTDYSMHWVQQAPGKGLKWMGLIDLEDGNTIYAEEFQDRVTITADTSTDTAYMDLSSLRSEDTAVFYCAISPLRGLTADVFDVWGQGTLVTVSS
VL: QSALTQPASASGSPGQSITISCTGTSSDIGRYDFVSWYQRQPGKAPKLMIYDVINRPSGVSSRFSGSKSGNTASLTISGLQAEDEADYYCSSYAGSTTLYVFGTGTKLTVLG
notes: IgG of scFv PGIA-3-B1; also called 11986 IgG; IgG of scFv PGIA-03-B1 (PGIA-3-B1)
B7: c-Met 11986 Fab (Fab, V domains shown)
VH: B6 VH
VL: B6 VL
notes: VH and VL limits counted as for the IgG
B8: c-Met 11978 Fab (Fab, V domains shown)
VH: not shown
VL: NFMLTQPHSVSESPGKTVTISCTRSSGSIAFDYVQWYQQRPGSAPTTVIYEDNQRPSGVPDRFSASIDSSSNSASLTISALKTEDEADYYCQSYDNSNSWVFGGGTKLTVLG
notes: as for B7
B9: c-Met 12133 Fab (Fab, V domains shown)
VH: B2 VH
VL: B2 VL
notes: VH and VL limits counted as for the IgG; also called Fab fragment derived from c-Met antibody 12133
B10: c-Met 12136 Fab (Fab, V domains shown)
VH: B5 VH
VL: B5 VL
notes: VH and VL limits counted as for the IgG; also called Fab fragment derived from c-Met antibody 12136
B11: c-Met 12075 Fab (Fab, V domains shown)
VH: QVQLVQSGPEVKKPGASVEVSCKASGYTFTGDYMHWVRQAPGQGPEWMGWINPQTGVTKYAQKFQGRVTMARDTSINTAYMELRGLRSDDTAVYYCVREDHNYDLWSAYNGLDVWGQGTLVTVSS
VL: QSVLTQPPSVSAAPGQKVTISCSGSSSNIGNNHVSWYQQLAGTAPKLLIFDNDKRPSGIPDRFSGSKSGTSATLGITGLQTGDEADYYCGTWDKSPTDIYVFGSGTKLTVLG
notes: VH and VL limits counted as for the IgG; also called Fab fragment derived from c-Met antibody 12075

Key:
[1] = biological target: T1, biotinylated c-Met-Fc (R&D Systems, #358-MT-100/CF, 5.1 biotin per c-Met molecule) (human, UniProt P08581 25-932, biotinylated, 5.1 biotin per c-Met molecule (Pierce #21335)); assay: SPR (BIAcore), biotinylated c-Met-Fc captured on streptavidin chip, IgG as analyte, bivalent model
T1 construct: extracellular domain; Captured on a streptavidin (SA) chip for the BIAcore study of the IgGs; Fc part of the bought chimera not given
Method: The binding properties (on-rate, off-rate and affinity) of c-Met monoclonal antibodies (IgG or Fab versions) with human c-Met extracellular domain was determined using surface plasmon resonance, or BLAcore, technology. For the binding studies with IgG, a low density (<1 ng/mm2) of c-Met-Fc (R&D Systems, #358-MT-100/CF) containing 5.1 biotin per c-Met molecule (prepared with Pierce #21335 as per manufacturer's instructions) was captured onto a SA chip precoated with Streptavidin (BIAcore Inc.). A streptavidin flow cell without adsorbed c-Met-Fc was used as a control cell for non-specificbinding. The antibody sample to be analyzed was prepared in HEPES buffer (0.15M NaCl, 10 mM HEPES, 3.4 mM EDTA, 0.005% surfactant P-20, pH 7.4) to form a set of solutions varied in concentration from 0.78 nM to 100 nM. The HEPES buffer used as the running solution was set at a flow rate of 50 ul/min. Each sample solution was injected over the two flow cells for three minutes, followed by 5 minutes of dissociation. The flow cells were then regenerated with 4.5M MgCl₂ for one minute to remove the bound antibody for the next cycle of binding study. The net sensorgrams (subtraction of sensorgrams from the negative control flow cell as well as that from the buffer blank) obtained for each set of samples were processed simultaneously in a global fitting using a bivalent binding model of the BIAevaluation software program equipped with the system. The on-rate (Kₐ), off-rate (Kd) and binding affinity (KD) were determined from the fitting with KD equal to kd/kₐ.

[2] = biological target: T2, c-Met/Fc Chimera (R&D Systems, catalog # 358-MT-100) (human, UniProt P08581 25-932); assay: competition ELISA: displacement of biotinylated HGF from plate-coated c-Met/Fc chimera, IgG, n = 2
T2 construct: extracellular domain; Bought reagent; also called human c-Met-Fc fusion protein; recombinant c-Met protein; Fc part of the bought chimera not given
Method: (§1) 96-well Fluoronunc plates were coated with 50 ul of 0.5 ug/ml c-Met/Fc Chimera (R&D Systems, Minneapolis Minn., catalog # 358-MT-100) in phosphate buffered saline (PBS) and the plates were incubated overnight at room temperature. Wells were washed three times with washing buffer (PBS+0.1% Tween 20), blotting the plates on paper towels between each wash. Nonspecific binding in the wells was blocked by the addition of 250 ul of blocking buffer (3.0% milk (Carnation) in PBS) to each well and incubated at room temperature for two hours.
(§2) The c-Met antibodies were diluted in reagent buffer (PBS, 0.5% BSA, 0.05% Tween-20) and titrations were performed in 96 well polypropylene plates. Biotinylated HGF (0.4 ug/ml) (R&D Systems, biotinylated with Pierce #21335 as per manufacturer's instructions) was added to each well. 50 ul of the dilutions were transferred into the Fluoronunc plates containing human c-Met-Fc fusion protein (R&D Systems, #) and the plates were incubated for two hours at room temperature. The plates were washed three times with wash buffer and blotted onto paper towels. 50 ul of europium-labeled Streptavidin (Wallac Perkin Elmer) diluted 1:1000 in Delfia assay buffer (Wallac Perkin Elmer) was added per well and the plates were incubated for one hour at room temperature. The plates were washed seven times with Delfia wash buffer (Tris buffered saline (TBS) supplemented with 0.1% Tween-20) and blotted onto paper towels. 100 ul Delfia enhancer solution (Wallac Perkin Elmer) was added to each well and the plates incubated for 5 minutes on a plate shaker at room temperature. Plates were read on a fluorescence plate reader and analyzed using GraphPad Prism software (GraphPad Software, San Diego, Calif.).
(§3) C-Met antibodies 1A3.3.13 (#HB-11894, ATCC Hybridoma) and 5D5.11.6 (#HB-11895, ATCC Hybridoma) were used as positive controls. MOPC-21 (#M-7894, Sigma) was used as an IgG isotype control and HB-94 (#HB-94, ATCC Hybridoma) was converted into a Fab fragment and used as a Fab isotype control. NK4-Elastase is a kringle to kringle 4 fragment resulting from digesting intact HGF purified from S-114 cells with elastase (Date et al., FEBS Lett. 420:1-6 ([…]).

[3] = biological target: c-Met (endogenous, on human cell lines 184B5, HCT-116, DU-145 and NCI H441) (human, UniProt P08581 25-1390); assay: cell-based or functional assay
[4] = biological target: T2, c-Met/Fc Chimera (R&D Systems, catalog …); assay: europium (DELFIA) ligand competition ELISA: biotinylated HGF binding to plate-coated c-Met/Fc Chimera, antibody titrated
Method: as §1, §2

[5] = biological target: T2, c-Met/Fc Chimera (R&D Systems, catalog …); assay: competition ELISA: displacement of biotinylated HGF from plate-coated c-Met/Fc chimera, Fab, n = 2
Method: as §1, §2, §3

[6] = biological target: T2, c-Met/Fc Chimera (R&D Systems, catalog …); assay: SPR (BIAcore), c-Met-Fc captured on protein A CM5 chip, Fab as analyte, 1:1 Langmuir model
Method: For the binding study of Fab fragments derived from antibodies of the invention, a high density (>2 ng/mm²) of protein A was first immobilized covalently onto a CM5 sensorchip using EDC/NHS amine coupling chemistry [. The flow cell containing c-Met-Fc captured by the protein A was used as the positive control while a flow cell containing only protein A was used as the negative control. The Fab sample to be analyzed was as above for antibodies to form a set of solutions with concentration ranged from 3.9 nM to 500 nM. The HEPES buffer used as the running solution was set at a flow rate of 50 ul/min. For each cycle of binding study, low density (<1 ng/mm²) of c-Met-Fc was captured first onto the positive flow cell. Each sample solution was then injected over the two flow cells (one negative and one positive in series) for three minutes followed by 5 minutes of dissociation. The flow cells were then regenerated with 4.5M MgCl₂ for one minute to remove the bound c-Met-Fc/Fab complexes for the next cycle of binding. The net sensorgrams (subtraction of sensorgrams from the negative control flow cell as well as that from the buffer blank) obtained from the set of samples were fitted simultaneously in a global fitting using a Langmuir 1:1 binding model of the BIAevaluation program equipped with the system. The on-rate (Kₐ), off-rate (Kd) and binding affinity (KD) were determined from the fitting with KD equal to kd/kₐ.

Binder	Kd [1] [nM]	koff [1] [s⁻¹]	kon [1] [M⁻¹ s⁻¹]	IC50 [2] [nM]	IC50 [5]	further results
B1	9.7	0.00329	338000	0.5		scatter assay on DU-145 cells, mean object area, agonist (alone), 100 nM IgG; the smaller the number, the more scattering [3]: 234 mean object area; scatter assay on DU-145 cells, mean object area, antagonist (w/30 pM HGF), 100 nM IgG; the smaller the number, the more scattering [3]: 226 mean object area
B2	6	0.000598	98900	0.58		scatter assay on DU-145 cells, mean object area, agonist (alone), 100 nM IgG; the smaller the number, the more scattering [3]: 241 mean object area; scatter assay on DU-145 cells, mean object area, antagonist (w/30 pM HGF), 100 nM IgG; the smaller the number, the more scattering [3]: 230 mean object area
B3	8.4	0.000759	90600	0.58		IC50 (read off the curve) [4]: ~0.7 nM
B4					10.7 nM	
B5	0.8	0.000229	294000	1		
B6				0.52		
B7					80 nM	
B8					65.9 nM and > 125 nM	
B9						Kd [6]: 8.8 nM; koff [6]: 0.00245 s⁻¹; kon [6]: 280000 M⁻¹ s⁻¹
B10						Kd [6]: 6 nM; koff [6]: 0.00101 s⁻¹; kon [6]: 168000 M⁻¹ s⁻¹
B11					> 125 nM	
